B1: ANTI-HUMAN ENTPD2 MAB16 (antibody, human IgG1, kappa, V domains shown)
VH: DIQLQESGPGLVKPSQSLSLTCSVTGYSITSGYYWNWIRQFPGNKLEWMGYISYDGDNNYNPSLKNRISITRDTSKNQFFLKLSSVTTEDTATYYCAGGYYRYGLSYYYVMDYWGQGTSVTVSS
VL: DTVLTQSPASLAVSLGQRATISCKASQSVDYDGNSYMNWYQQKPGQPPKLLIYAASNLESGIPARFSGSGSGTDFTLNIHPVEEEDAATYYCQQSNEDPPTFGGGTKLEIKR
B2: ANTI-HUMAN ENTPD2 MAB17 (antibody, human IgG1, kappa, V domains shown)
VH: EVQLQQFGAELVKPGASVKISCKASGYTFTDYNMDWVKQSHGKSLEWIGDINPKYDISTYNQQFKGKATLTVDKSSSTAYMELRSLTSEDTAVYYCARRGFFLYYGINYYYFDVWGAGTTVTVSS
VL: QIVLTQSPAIMSASLGEEITLTCSASSSVSYIHWYQQKSGTSPTLLIYSTSNLASGVPSRFSGSGSGTFYSLTISSVEAEDAADYYCHQWSSYPWTFGGGTKLEIKR
B3: ANTI-HUMAN ENTPD2 MAB19 (antibody, human IgG1, kappa, V domains shown)
VH: EVQLQQFGAELVKPGTSVKISCKASGYTFTDYNMDWVKQSHGKSLEWIGDINPNYDITTYNQRFKGKATLTVDKSSSTAYMELRSLTSEDTAVYYCARRGFFPYYGNSYYYFDVWGAGTTVTVSS
VL: QIVLTQSPTIMSASLGEEITLTCSASSSVSYMHWYQQKSGTSPKLLIYSTSNLASGVPSRFSGSGSGTFYSLTISSVEAEDAADYYCHQWSNYPWTFGGGTKLEIKR
B4: ANTI-HUMAN ENTPD2 MAB20 (antibody, human IgG1, kappa, V domains shown)
VH: EVQLQQFGAELVKPGASVKISCKASGYTFTDYNMDWVKQSHGKSLEWIGDINPNYDITSYNQKFKGKATLTVDKSSSTAYMELRSLTSEDTAVYYCARRGFFLYYGSSYYYFDVWGAGTTVTVSS
VL: QIVLTQSPAIMSASLGEEITLTCSASSSVSYMHWYQQKSGTSPKLLIYSTSNLASGVPSRFSGSGSGTFYSLTISSVEAEDAADYYCHQWSSYPWTFGGGTKLEIKR
B5: ANTI-HUMAN ENTPD2 MAB21 (antibody, human IgG1, kappa, V domains shown)
VH: EVQLQQSGPELVKPGASVKISCKTSGYTFTEYTMHWVKQSHGKSLEWIGGINPNNGITTYNQKFKGKATLTVDKSSSTAYMDLRSLTSEGSAVYYCARRGFPIYYYGTSLYYFDYWGQGTTLTVSS
VL: QIVLTQSPAIMSASLGEEITLTCSASSSVSYMHWYQQRSGTSPKLLIYTTSNLASGVPSRFSGSGSGTFYSLTISSVEAEDAADYYCHQWSSYPWTFGGGTKLEIKR
B6: ANTI-HUMAN ENTPD2 MAB11 (antibody, human IgG1, kappa, V domains shown)
VH: EVQLLESGGGLVQSGGSLRLSCAASGFTFSSYAMSWVRQAPGKGLEWVSVISGSGGSTYYADSVKGRFTISRDNSKNTLYLQMNSLRAEDTAVYYCARGDDYGDDYYYYGMDVWGQGTTVTVSS
VL: not shown
B7: ANTI-HUMAN ENTPD2 MAB12 (antibody, human IgG1, kappa, V domains shown)
VH: EVLLVESGGGLVQPGGSLRLSCAASGFTFNSCSMNWVRQAPGKGLEWVSYISSSSSTIYYADSVKGRFTISRDNAKNSLYLQMNSLKDEDTAVYYCARDQGNWNYDDYYNGLDVWGQGTTVTVSS
VL: not shown
B8: ANTI-HUMAN ENTPD2 MAB18 (antibody, human IgG1, kappa, V domains shown)
VH: DIQLQESGPGLVKPSQSLSLTCSVTGYSITSGYYWNWIRQFPGNKLEWMGYISYDGDNNYNPSLKNRISITRDTSKNQFFLKLSSVTTEDTATYYCAGGYYRYGLGSYSGSYYYVMDYWGQGTSVTVSS
VL: DTVLTQSPASLAVSLGQRATISCKASQSVDYDGNSYMNWYQQKPGQPPKLLIYAASNLESGIPARFSGSGSGTDFTLNIHPVEEEDAATYYCQQSNEDPPTFGGGTKLEIKR
B9: ANTI-mouse ENTPD2 MAB15 (antibody, mouse IgG2a, kappa, V domains shown)
VH: QVQLVQSGAELKQPGQSVKISCKASGYTFHHYGMNWVKQAPGQGLKWMGWINTDTGNPTYADDFKGRFVFSLDTSVSTAYLQISNLKNEDTATYYCVRYGTLYSGYGFFFDSWGQGTLVTVSS
VL: DIMMTQSPSSLSVSAGEKATITCKSSQSLFNSNTNKNYLNWYLQKPGQSPKLLFYYASTRHTGVPDRFIGSGSGTDFTLTITSVQDEDLADYYCQQWYSYPWTFGPGTKLEIKR
B10: ANTI-mouse ENTPD2 MAB14 (antibody, mouse IgG2a, kappa, V domains shown)
VH: QVQLVQSGAELKQPGQSVKISCKASGYTFWHYGMNWVKQAPGQGLKWMGWINTDTGNPTYADDFKGRFVFSLDTSVSTAYLQISNLKNEDTATYYCVRYGTLYSGYGFFFDSWGQGTLVTVSS
VL: DIMMTQSPSSLSVSAGEKATITCKSSQSLFNSNTNKNYLNWYLQKPGQSPKLLFYYASTRHTGVPDRFIGSGSGTDFTLTITSVQDEDLADYYCQQWYSYPWTFGPGTKLEIKR
B11: ANTI-HUMAN ENTPD2 FAB22 (Fab, V domains shown)
VH: EVKLEQSGPGLVKPSQSLSLTCSVTGYSITSGYYWNWIRQFPGNKLEWMSYISYDGDNNYNPSLKNRISITRDTSKNQFFLKLSSVTTEDTATYYCAGGYYRYGLSYYYVMDYWGQGTSVTVSA
VL: DIKMTQSPASLAVSLGQRATISCKASQSVDYDGNSYMNWYQQKPGQPPKLLIYAASNLESGIPARFSGSGSGTDFTLNIHPVEEEDAATYYCQQSNEDPPTFGGGTKLELKR
notes: Fab with the CDRs of mAb16; human CH1 and kappa constant regions; also called anti-hENTPD2 FAb22
B12: ANTI-HUMAN ENTPD2 FAB23 (Fab, V domains shown)
VH: EVQLQQFGAELVKPGASVKISCKASGYTFTDYNMDWVKQSHGKSLEWIGDINPKYDISTYNQQFKGKATLTVDKSSSTAYMELRSLTSEDTAVYYCARRGFFLYYGINYYYFDVWGAGTTVTVSS
VL: QIVLTQSPAIMSASLGEEITLTCSASSSVSYIHWYQQKSGTSPTLLIYSTSNLASGVPSRFSGSGSGTFYSLTISSVEAEDAADYYCHQWSSYPWTFGGGTKLEIKR
modifications: N-terminal residue observed and modeled as pyroglutamate in the crystal structure
notes: Fab with the variable regions of mAb17; also called anti-hENTPD2 FAb23; anti-human ENTPD2 MAB17 Fab

Legend:
[1] = target: recombinant human ENTPD2 extracellular domain (residues 29-462) with C-terminal Avi-His6 tag (human, UniProt Q9Y5L3 29-462, biotinylated on the AviTag in the epitope binning assay); test: cell-based or functional assay
[2] = target: T1, human ENTPD2 expressed on cells (human, UniProt Q9Y5L3 1-495); test: cell-based or functional assay
T1 sequence: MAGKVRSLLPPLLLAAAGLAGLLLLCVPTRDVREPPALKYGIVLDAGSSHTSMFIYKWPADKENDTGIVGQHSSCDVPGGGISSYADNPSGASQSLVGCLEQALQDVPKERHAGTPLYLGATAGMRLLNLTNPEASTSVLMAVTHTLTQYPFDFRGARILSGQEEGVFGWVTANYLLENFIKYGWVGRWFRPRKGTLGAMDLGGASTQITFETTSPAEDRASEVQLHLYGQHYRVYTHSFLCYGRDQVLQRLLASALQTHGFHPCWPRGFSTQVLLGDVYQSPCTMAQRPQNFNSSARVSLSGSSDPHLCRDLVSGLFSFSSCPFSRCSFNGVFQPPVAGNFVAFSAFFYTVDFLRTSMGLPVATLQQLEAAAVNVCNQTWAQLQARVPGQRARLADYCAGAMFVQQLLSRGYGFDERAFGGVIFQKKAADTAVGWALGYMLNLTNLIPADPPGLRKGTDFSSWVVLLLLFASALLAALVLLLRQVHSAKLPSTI

[3] = target: T2, cyno ENTPD2 expressed on NIH/3T3 cells (cynomolgus macaque, UniProt Q9Y5L3 1-495 (human entry)); test: cell-based or functional assay
T2 chain: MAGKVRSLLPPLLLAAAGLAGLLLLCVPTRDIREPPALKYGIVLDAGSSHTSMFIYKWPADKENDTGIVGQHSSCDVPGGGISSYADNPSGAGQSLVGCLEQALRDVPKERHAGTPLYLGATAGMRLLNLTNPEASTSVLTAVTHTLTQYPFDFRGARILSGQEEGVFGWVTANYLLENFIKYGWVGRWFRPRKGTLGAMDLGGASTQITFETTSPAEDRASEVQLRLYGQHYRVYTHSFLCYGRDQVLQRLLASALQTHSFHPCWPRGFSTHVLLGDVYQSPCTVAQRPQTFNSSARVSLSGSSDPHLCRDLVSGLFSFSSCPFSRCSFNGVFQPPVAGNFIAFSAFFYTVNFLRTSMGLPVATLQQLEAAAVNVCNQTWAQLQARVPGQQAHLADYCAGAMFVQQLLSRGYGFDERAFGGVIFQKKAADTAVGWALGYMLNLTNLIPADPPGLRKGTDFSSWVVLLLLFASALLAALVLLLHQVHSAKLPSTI

[4] = target: T3, mouse ENTPD2 expressed on cells (mouse, UniProt O55026 1-495); test: cell-based or functional assay
T3 sequence: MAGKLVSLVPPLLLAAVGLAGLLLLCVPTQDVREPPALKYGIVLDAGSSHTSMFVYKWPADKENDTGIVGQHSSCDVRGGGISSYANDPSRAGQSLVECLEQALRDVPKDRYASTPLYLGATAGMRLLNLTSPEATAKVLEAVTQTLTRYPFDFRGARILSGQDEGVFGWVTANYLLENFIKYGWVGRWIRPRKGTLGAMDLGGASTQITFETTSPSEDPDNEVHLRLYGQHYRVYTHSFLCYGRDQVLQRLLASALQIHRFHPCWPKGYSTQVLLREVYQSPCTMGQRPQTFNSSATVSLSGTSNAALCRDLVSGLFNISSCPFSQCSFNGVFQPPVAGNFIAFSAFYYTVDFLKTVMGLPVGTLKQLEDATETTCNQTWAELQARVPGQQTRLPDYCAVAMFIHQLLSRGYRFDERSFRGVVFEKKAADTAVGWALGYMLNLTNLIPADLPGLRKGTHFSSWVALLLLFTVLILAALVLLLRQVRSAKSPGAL

[5] = target: T4, recombinant human ENTPD2 (residues 29-462, Y350A mutant) used in crystallographic studies (human, UniProt Q9Y5L3 29-462, N-linked glycosylation observed at Asn129, Asn294, Asn378 and Asn443); test: X-ray crystal structure of the complex
T4 construct: also called hENTPD2 Y350A; human ENTPD2 (Y350A mutant) ectodomain
T4 sequence: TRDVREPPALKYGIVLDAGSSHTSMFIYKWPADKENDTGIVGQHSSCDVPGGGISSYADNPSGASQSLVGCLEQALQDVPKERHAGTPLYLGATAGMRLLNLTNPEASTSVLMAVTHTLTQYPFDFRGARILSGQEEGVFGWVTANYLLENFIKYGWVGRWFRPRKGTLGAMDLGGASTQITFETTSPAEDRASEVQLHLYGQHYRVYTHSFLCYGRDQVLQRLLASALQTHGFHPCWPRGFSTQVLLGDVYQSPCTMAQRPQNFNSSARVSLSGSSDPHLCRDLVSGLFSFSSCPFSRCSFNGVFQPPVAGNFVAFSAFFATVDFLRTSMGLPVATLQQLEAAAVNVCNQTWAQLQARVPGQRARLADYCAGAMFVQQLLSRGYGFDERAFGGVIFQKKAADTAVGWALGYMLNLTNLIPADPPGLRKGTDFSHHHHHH
Experimental: Structure determination by molecular replacement was performed using the previously determined human ENTPD2 coordinates and Fab coordinates from PDB code 3QRG.

Binder | IC50, ENTPD2 Biochemical Assay at 1 uM ATP [1] [nM] | % inhibition, Human ENTPD2 NIH/3T3 Assay [2] [%] | IC50, Human ENTPD2 NIH/3T3 Assay [2] [nM] | further results
B1 | 77.3 | 30 | > 133 | % inhibition, Cyno ENTPD2 NIH/3T3 Assay [3]: 5%; IC50, Cyno ENTPD2 NIH/3T3 Assay [3]: > 133 nM
B2 | 0.27 | 98 | 0.6 | % inhibition, RKO Assay [2]: 96%; IC50, RKO Assay [2]: 0.5 nM; % inhibition, Cyno ENTPD2 NIH/3T3 Assay [3]: 91%; IC50, Cyno ENTPD2 NIH/3T3 Assay [3]: 1 nM
B3 | 4.09 |  |  | 
B4 | 17.5 |  |  | 
B5 | 0.87 |  |  | 
B6 |  | 55 | 1.5 | 
B7 |  | 68 | 26.6 | 
B8 |  | 88 | 0.4 | % inhibition, Cyno ENTPD2 NIH/3T3 Assay [3]: 68%; IC50, Cyno ENTPD2 NIH/3T3 Assay [3]: 20 nM
B9 |  |  |  | ENTPD2 Functional Assay IC50 (mouse ENTPD2 NIH/3T3 cells) [4]: 5.9 nM
B10 |  |  |  | ENTPD2 Functional Assay IC50 (mouse ENTPD2 NIH/3T3 cells) [4]: 4.6 nM
B11 |  |  |  | buried solvent-accessible surface [5]: ~16700 Å2
B12 |  |  |  | buried solvent-accessible surface [5]: ~17500 Å2
